Reference: patent publication US6001988

Tests used:
[1] = target: T1, L-selectin (LS-Rg) (Homo sapiens) (UniProt P14151); assay: filter
T1 sequence: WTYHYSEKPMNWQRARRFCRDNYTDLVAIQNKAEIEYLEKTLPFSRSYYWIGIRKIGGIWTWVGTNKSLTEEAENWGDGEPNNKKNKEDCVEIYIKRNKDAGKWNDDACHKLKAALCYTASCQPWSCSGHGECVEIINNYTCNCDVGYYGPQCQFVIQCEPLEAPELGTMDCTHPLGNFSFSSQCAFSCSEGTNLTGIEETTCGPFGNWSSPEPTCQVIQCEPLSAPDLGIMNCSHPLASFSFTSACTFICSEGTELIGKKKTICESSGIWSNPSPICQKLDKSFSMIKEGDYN

[2] = target: T2, E-selectin (ES-Rg) (Homo sapiens) (UniProt P16581); assay: filter
T2 sequence: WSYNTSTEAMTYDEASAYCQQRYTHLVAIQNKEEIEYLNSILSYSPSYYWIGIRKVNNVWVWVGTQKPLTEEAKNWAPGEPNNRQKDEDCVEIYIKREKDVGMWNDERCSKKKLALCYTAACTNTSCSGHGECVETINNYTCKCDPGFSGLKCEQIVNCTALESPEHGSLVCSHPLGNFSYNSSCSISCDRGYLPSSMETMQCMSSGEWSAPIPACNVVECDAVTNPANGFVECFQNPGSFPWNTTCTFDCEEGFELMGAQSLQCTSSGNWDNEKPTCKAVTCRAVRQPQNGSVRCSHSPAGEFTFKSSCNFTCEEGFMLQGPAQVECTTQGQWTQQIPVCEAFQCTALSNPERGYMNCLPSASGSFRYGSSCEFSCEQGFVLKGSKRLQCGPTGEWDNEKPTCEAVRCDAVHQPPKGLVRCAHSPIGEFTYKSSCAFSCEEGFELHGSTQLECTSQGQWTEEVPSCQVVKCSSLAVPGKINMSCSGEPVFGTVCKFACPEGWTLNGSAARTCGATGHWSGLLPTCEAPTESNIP

[3] = target: T3, wheat germ agglutinin (WGA) (Triticum vulgare) (UniProt P10968); assay: filter
T3 sequence: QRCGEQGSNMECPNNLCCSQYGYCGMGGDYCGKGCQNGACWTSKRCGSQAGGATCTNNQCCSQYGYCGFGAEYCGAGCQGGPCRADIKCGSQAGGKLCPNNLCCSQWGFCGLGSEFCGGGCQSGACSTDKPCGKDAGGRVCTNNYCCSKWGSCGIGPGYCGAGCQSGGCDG

[4] = target: T4, P-selectin (PS-Rg) (Homo sapiens) (UniProt P16109); assay: filter
T4 sequence: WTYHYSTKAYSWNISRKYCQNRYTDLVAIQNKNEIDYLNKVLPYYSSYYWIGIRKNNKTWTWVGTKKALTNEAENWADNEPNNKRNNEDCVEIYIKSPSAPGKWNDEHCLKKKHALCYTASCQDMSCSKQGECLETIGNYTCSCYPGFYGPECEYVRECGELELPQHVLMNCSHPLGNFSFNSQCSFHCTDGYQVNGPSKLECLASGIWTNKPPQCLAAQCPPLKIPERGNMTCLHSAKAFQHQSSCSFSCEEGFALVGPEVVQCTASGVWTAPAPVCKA

CD22beta (CD22beta-Rg) = CD22beta (CD22beta-Rg) (UniProt P20273); assay: filter
[5] = tested on: Datura stramonium lectin (Datura stramonium); assay: filter; details: 2'-NH2 all C and U
[6] = target: T1, L-selectin (LS-Rg) (Homo sapiens); assay: inhibition; details: 2'-NH2 all C and U; inhibits LS-Rg binding to immobilized sialyl-Lewis X, room temp, Ca/Mg
[7] = target: T5, L-selectin on PBMC (Homo sapiens) (UniProt P14151); details: 2'-NH2 all C and U; PBMC binding on ice; competed by DREG-56 anti-L-selectin antibody
T5 sequence: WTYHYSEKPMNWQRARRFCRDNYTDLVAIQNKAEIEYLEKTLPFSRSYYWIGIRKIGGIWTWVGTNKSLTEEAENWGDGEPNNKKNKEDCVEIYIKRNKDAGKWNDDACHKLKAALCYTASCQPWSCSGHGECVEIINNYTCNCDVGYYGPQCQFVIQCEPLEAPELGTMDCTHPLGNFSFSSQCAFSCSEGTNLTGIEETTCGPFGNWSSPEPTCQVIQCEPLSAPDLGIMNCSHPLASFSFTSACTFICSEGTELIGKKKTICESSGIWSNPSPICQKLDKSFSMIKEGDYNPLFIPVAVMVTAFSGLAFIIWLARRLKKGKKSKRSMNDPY

[8] = 2'-NH2 all C and U, HBSS, room temp
[9] = 2'-NH2 on all C and U, <5% binding at highest protein, 4 C, HSMC

Chain of CD22beta (CD22beta-Rg) (P20273 20-687): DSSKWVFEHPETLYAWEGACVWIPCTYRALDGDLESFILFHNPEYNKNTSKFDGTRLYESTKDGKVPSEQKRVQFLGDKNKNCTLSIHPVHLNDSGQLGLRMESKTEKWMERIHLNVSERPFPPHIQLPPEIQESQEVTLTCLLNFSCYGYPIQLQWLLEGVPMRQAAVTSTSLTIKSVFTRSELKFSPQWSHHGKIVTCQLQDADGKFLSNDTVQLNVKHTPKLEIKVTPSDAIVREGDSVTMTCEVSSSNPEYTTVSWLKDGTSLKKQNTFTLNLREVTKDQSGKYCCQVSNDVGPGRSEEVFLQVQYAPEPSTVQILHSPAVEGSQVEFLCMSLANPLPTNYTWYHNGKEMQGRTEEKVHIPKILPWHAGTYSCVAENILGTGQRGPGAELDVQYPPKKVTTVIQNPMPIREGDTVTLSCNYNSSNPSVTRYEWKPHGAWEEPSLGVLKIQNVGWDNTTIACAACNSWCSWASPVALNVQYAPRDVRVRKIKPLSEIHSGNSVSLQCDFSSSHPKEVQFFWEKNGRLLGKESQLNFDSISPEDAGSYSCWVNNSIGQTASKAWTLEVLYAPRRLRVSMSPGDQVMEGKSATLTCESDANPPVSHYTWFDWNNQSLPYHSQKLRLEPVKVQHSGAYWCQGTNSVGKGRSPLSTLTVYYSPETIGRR

“CTACCTACGATCTGACTAGCCGAGGATCTGATACTTATTGAACATAMCCGCACNCAGGCTTGCTTACTCTCATGTAGTTCC [102]” was tested, and the Kd ([1]; 37 C, room temp not determined) was 7.9 nM.

In the case of “CTACCTACGATCTGACTAGCCGAGGTAGTCGTTATAGGGTRCRCACGACACAAARCRGTRGCTTACTCTCATGTAGTTCC [127]”, the Kd ([2]; room temp, Ca/Mg buffer) is reported as 1.3 µM, the Kd ([3]; <3% binding at 1.4 µM, room temp) is reported as > 100 µM and the Kd ([4]; room temp, Ca/Mg buffer) is reported as 0.78 µM. The Kd (CD22beta (CD22beta-Rg); <1% binding at 700 nM, room temp) was > 100 µM and the Kd ([1]; room temp, 890 pM at 37 C) was 1 nM.

“CTACCTACGATCTGACTAGCNNNNNNNNNNNNNNNNNNNNNNNNNNNNNNNNNNNNNNNNGCTTACTCTCATGTAGTTCC [random 40BH ssDNA pool]” was tested, and the Kd ([1]; estimate for random ssDNA) was 10000 nM.

“GGGAAAAGCGAAUCAUACACAAGAAAGGGAUGGGAUUGGGACGAGCGGCCAAGACUCGGCGGGAACGAAGGGUCCGCUCCGCCAGAGACCAACCGAGAA [6.8]” was tested, and the Kd ([5]; <5% bound at 1 uM protein) was > 20 µM.

For “GGGAAAAGCGAAUCAUACACAAGACAGCGGCGGAGUCAGUGAAAGCGUGGGGGGYGCGGGAGGUCUACCCUGACGCUCCGCCAGAGACCAACCGAGAA [6.14]”, the Kd ([3]; 2'-NH2 all C and U, <5% bound at 1 uM WGA) was > 20 µM.

“GGGAAAAGCGAAUCAUACACAAGACGGCUGUGUGGUGUUGGAGCGUCAUAGUAGGAGUCGUCACGAACCAAGGCGCUCCGCCAGAGACCAACCGAGAA [11.24]” was tested, and the Kd ([5]; <5% bound at 1 uM protein) was > 20 µM.

For “GGGAAAAGCGAAUCAUACACAAGACUGGCAAGRAGUGCGUGAGGGUACGUUAGGGGUGUUUGGGCCGAUCGCAUGCUCCGCCAGAGACCAACCGAGAA [11.7]”, the Kd [3, 8] was 0.016 µM.

With “GGGAAAAGCGAAUCAUACACAAGAGAGGUGRAUGGGAGAGUGGAGCCCGGGUGACUCGAGGAUUCCCGUGCUCCGCCAGAGACCAACCGAGAA [11.3]” the Kd [3, 8] was 0.41 µM.

With “GGGAAAAGCGAAUCAUACACAAGAGUAGGAGGUUCCAUCACCAGGACUCGGCGGGAACGGAAGGUGAUGSGCUCCGCCAGAGACCAACCGAGAA [11.35]” the Kd [3, 8] was 0.09 µM.

For “GGGAAAAGCGAAUCAUACACAAGANNNNNNNNNNNNNNNNNNNNNNNNNNNNNNNNNNNNNNNNNNNNNNNNNNGCUCCGCCAGAGACCAACCGAGAA [random 50N9 RNA pool]”, the Kd ([3]; 2'-NH2 all C and U, no binding at 36 uM WGA monomer) was > 4000 µM.

With “GGGAAAAGCGAAUCAUACACAAGAUUGGUCGUACUGGACAGAGCCGUGGUAGAGGGAUUGGGACAAAGUGUCAGCUCCGCCAGAGACCAACCGAGAA [11.20]” the Kd ([5]; HBSS, room temp) was 11.2 µM.

“GGGAGGACGAUGCGGAAGUGAAGCUAAAGCGGAGGGCCAUUCAGUUUCNCACCACAGACGACUCGCCCGA [F14.2]” was tested, and the Kd ([2]; 2'-NH2 all C and U, 4 C, HSMC) was 1.9 µM, the Kd ([4]; 2'-NH2 all C and U, 4 C, HSMC) was 0.45 µM and the Kd (CD22beta (CD22beta-Rg); [9]) was > 20 µM. For the same sequence, the Kd ([1]; 2'-NH2 all C and U, 4 C, HSMC, 7.2 nM at room temp) was 1.8 nM.

Work on “GGGAGGACGAUGCGGAAGUGAAGCUAAAGSGGAGGGCCACUCAGAAACGCACCACAGACGACUCGCCCGA [F14.13]” yielded a Kd ([1]; 2'-NH2 all C and U, 4 C, HSMC, biphasic, fraction 0.74, low affinity Kd 270 nM) of 1.3 nM.

For “GGGAGGACGAUGCGGCCGUACAUGGUAARCCUCGAAGGAUUCCCGGGAUGAUCCCCAGACGACUCGCCCGA [F14.27]”, the Kd ([1]; 2'-NH2 all C and U, 4 C, HSMC) was 145 nM.

For “GGGAGGACGAUGCGGNNNNNNNNNNNNNNNNNNNNNNNNNNNNNNNNNNNNNNNNCAGACGACUCGCCCGA [random 40N7 RNA pool]”, the Kd ([1]; 2'-NH2 all C and U, estimate for random RNA) was 10000 nM.

“GGGAGGACGAUGCGGUAACAACAAUCAAGGCGGGUUYACCGCCCCAGUAUGAGUACAGACGACUCGCCCGA [F14.12]” was tested, and the IC50 [6] was 0.01 µM, the Kd ([2]; 2'-NH2 all C and U, 4 C, HSMC) was 0.047 µM and the Kd ([4]; 2'-NH2 all C and U, 4 C, HSMC) was 0.91 µM. The Kd (CD22beta (CD22beta-Rg); 2'-NH2 all C and U, <5% bound at up to 660 nM, 4 C) was > 20 µM, the Kd ([1]; 2'-NH2 all C and U, 4 C, HSMC, Table IX prints 5.8 pM (fraction 0.68, low affinity Kd 16.2 nM), 1.7 nM at room temp) was 0.06 nM and the Kd [7] was 0.0013 µM.

In the case of “GGGAGGACGAUGCGGUCCAGAGCGUGAAGAUCAACGUCCCGGNGUCGAAGACAGACGACUCGCCCGA [F14.70]”, the Kd ([2]; 2'-NH2 all C and U, 4 C, HSMC) is reported as 5.9 µM, the Kd (CD22beta (CD22beta-Rg); [9]) is reported as > 20 µM and the Kd ([1]; 2'-NH2 all C and U, 4 C, HSMC, biphasic, fraction 0.75, low affinity Kd 254 nM, 7.8 nM at room temp) is reported as 2 nM.
